Patent US11472877 (Alector, dated 2022)
Substitutions are numbered along the chain they refer to.

T1: mouse TREM2 on BWZ cells (mouse, UniProt Q99NH8 19-227)
T1 construct: whole, on cells; also called BWZ Mouse TREM2
T1 sequence (looked up): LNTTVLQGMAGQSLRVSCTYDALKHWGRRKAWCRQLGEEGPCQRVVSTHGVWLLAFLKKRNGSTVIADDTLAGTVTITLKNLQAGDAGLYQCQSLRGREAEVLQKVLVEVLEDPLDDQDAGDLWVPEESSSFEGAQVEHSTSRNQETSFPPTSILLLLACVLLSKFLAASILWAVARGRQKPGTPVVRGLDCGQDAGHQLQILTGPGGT

T2: human TREM2 on BWZ cells (human, UniProt Q9NZC2 19-230)
T2 construct: whole, on cells; not tied to the cell line; also called BWZ Human TREM2
T2 sequence (looked up): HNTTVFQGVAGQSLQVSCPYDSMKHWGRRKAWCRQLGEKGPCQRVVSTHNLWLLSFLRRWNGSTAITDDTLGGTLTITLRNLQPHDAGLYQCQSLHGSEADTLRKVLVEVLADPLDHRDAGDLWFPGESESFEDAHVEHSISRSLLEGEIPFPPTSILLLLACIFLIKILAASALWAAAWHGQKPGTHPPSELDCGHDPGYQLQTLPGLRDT

B1: T1-57 (antibody, IgG1, V domains shown)
VH: EVQLVESGGGLVQPGRSLRLSCAASGFTFDDYAMHWVRQAPGKGLEWVSGITWNSGSIGYADSVKGRFTISRDNAKNSLYLQMNSLRAEDTALYYCAKGPRYSKPYFDYWGQGTLVTVSS
VL: DIQMTQSPSSVSASVGDRVTITCRASQGIDSWLAWYQQKPGKAPKLLIYAASSLQSGVPSRFSGSGSGTDFTLTISSLQPEDFATYYCQQRAVFPPTFGGGTKVEIK
notes: huIgG1; also called TI-57; ADI-19132
B2: T1-70 (antibody, IgG1, V domains shown)
VH: QVQLVQSGAEVKKPGASVKVSCKASGYTFTSYGIHWVRQAPGQGLEWMGWISAYNGNTNYAQKLQGRVTMTTDTSTSTAYMELRSLRSDDTAVYYCARAGTIYGRLDLWGRGTLVTVSS
VL: B1 VL with M4L, G28D, D30S, R91A, A92V, V93S, F94H, P96L
notes: huIgG1; also called TI-70; ADI-19146
B3: T1-69 (antibody, IgG1, V domains shown)
VH: QVQLVQSGAEVKKPGASVKVSCKASGYTFTSYGISWVRQAPGQGLEWMGWISAYNGNTNYAQKLQGRVTMTTDTSTSTAYMELRSLRSDDTAVYYCARGAGMYDGSPLGMDVWGQGTTVTVSS
VL: B1 VL with D30S, S53N, R91A, A92T, V93A, F94H
notes: huIgG1; also called TI-69; ADI-19145
B4: T1-65 (antibody, IgG1, V domains shown)
VH: QLQLQESGPGLVKPSETLSLTCTVSGGSISSSDYYWGWIRQPPGKGLEWIGSIYYSGSTYYNPSLKSRVTISVDTSKNQFSLKLSSVTAADTAVYYCARDSGQYTGSLDVWGQGTMVTVSS
VL: not shown
notes: huIgG1; also called TI-65; ADI-19141
B5: T1-55 (antibody, IgG1, V domains shown)
VH: QVQLVQSGAEVKKPGASVKVSCKASGYTFTSYYMHWVRQAPGQGLEWMGVINPSGGSTSYAQKFQGRVTMTRDTSTSTVYMELSSLRSEDTAVYYCARGADYYAGFDYWGQGTLVTVSS
VL: not shown
notes: huIgG1; also called TI-55; ADI-19130
B6: T1-52 (antibody, IgG1, V domains shown)
VH: QVQLVQSGAEVKKPGSSVKVSCKASGGTFSSYAISWVRQAPGQGLEWMGSIIPIFGTANYAQKFQGRVTITADESTSTAYMELSSLRSEDTAVYYCARDRGQYSSSWYGRMDVWGQGTTVTVSS
VL: DIQMTQSPSTLSASVGDRVTITCRASQSISSWLAWYQQKPGKAPKLLIYKASSLESGVPSRFSGSGSGTEFTLTISSLQPDDFATYYCQQSSADSPFTFGGGTKVEIK
notes: huIgG1; also called TI-52; ADI-19127
B7: T1-9 (antibody, IgG1, V domains shown)
VH: QVQLVQSGAEVKKPGASVKVSCKASGYTFTSYYMHWVRQAPGQGLEWMGIINPSGGSTSYAQKFQGRVTMTRDTSTSTVYMELSSLRSEDTAVYYCAREAGYDISSAFDIWGQGTMVTVSS
VL: not shown
notes: huIgG1; also called TI-9; ADI-19076
B8: T1-53 (antibody, IgG1, V domains shown)
VH: B7 VH with M34I, A100S, D103H, I104V, S106T
VL: not shown
notes: huIgG1; also called TI-53; ADI-19128
B9: T1-6 (antibody, IgG1, V domains shown)
VH: B7 VH with I50V, A100S, Y102H, D103S, I104Y, S105V, A107S, I110P, M116L
VL: not shown
notes: huIgG1; also called TI-6; ADI-19072
B10: T1-61 (antibody, IgG1, V domains shown)
VH: QVQLQESGPGLVKPSETLSLTCAVSGYSISSGYYWGWIRQPPGKGLEWIGSIYHSGSTYYNPSLKSRVTISVDTSKNQFSLKLSSVTAADTAVYYCARHDDYLSSFDPWGQGTLVTVSS
VL: not shown
notes: huIgG1; also called TI-61; ADI-19137
B11: T1-63 (antibody, IgG1, V domains shown)
VH: QVQLQESGPGLVKPSETLSLTCAVSGYSISSGYYWGWIRQPPGKGLEWIGSIYHSGNTYYNPSLKSRVTISVDTSKNQFSLKLSSVTAADTAVYYCARELYAYSSPMFYGMDVWGRGTTVTVSS
VL: DIQMTQSPSSLSASVGDRVTITCRASQSISRYLNWYQQKPGKAPKLLIYAASSLQSGVPSRFSGSGSGTDFTLTISSLQPEDFATYYCQQLYHAPPITFGGGTKVEIK
notes: huIgG1; also called TI-63; ADI-19139
B12: T1-64 (antibody, IgG1, V domains shown)
VH: QLQLQESGPGLVKPSETLSLTCTVSGGSISSSSYYWGWIRQPPGKGLEWIGSISYSGSTYYNPSLKSRVTISVDTSKNQFSLKLSSVTAADTAVYYCARYYSPYGMDVWGQGTTVTVSS
VL: not shown
notes: huIgG1; also called TI-64; ADI-19140
B13: T1-68 (antibody, IgG1, V domains shown)
VH: EVQLVQSGAEVKKPGESLKISCKGSGYSFTTYWIGWVRQMPGKGLEWMGIIYPGDSDTRYSPSFQGQVTISADKSISTAYLQWSSLKASDTAMYYCARGSPWDGRLFDIWGQGTMVTVSS
VL: EIVLTQSPATLSLSPGERATLSCRASQSVSSYLAWYQQKPGQAPRLLIYDASNRATGIPARFSGSGSGTDFTLTISSLEPEDFAVYYCQQFDNLPYTFGGGTKVEIK
notes: huIgG1; also called TI-68; ADI-19144
B14: T1-59 (antibody, IgG1, V domains shown)
VH: QVQLQESGPGLVKPSETLSLTCAVSGYSISSGYYWAWIRQPPGKGLEWIGSIYHSGSTYYNPSLKSRVTISVDTSKNQFSLKLSSVTAADTAVYYCARDLGGYEGAFDPWGQGTLVTVSS
VL: not shown
notes: huIgG1; also called TI-59; ADI-19135
B15: T1-56 (antibody, IgG1, V domains shown)
VH: EVQLVESGGGLVQPGRSLRLSCAASGFTFDDYAMHWVRQAPGKGLEWVSGISWNSGSIGYADSVKGRFTISRDNAKNSLYLQMNSLRAEDTALYYCAKGPRLLGYFDLWGRGTLVTVSS
VL: not shown
notes: huIgG1; also called TI-56; ADI-19131
B16: T1-71 (antibody, IgG1, V domains shown)
VH: B15 VH with D30G, L102R, L103T, G104S, Y105H, F106L, L108I, R111Q, L114M
VL: B1 VL with R91A, A92T, V93S, F94L, P96L
notes: huIgG1; also called TI-71; ADI-19147
B17: T1-67 (antibody, IgG1, V domains shown)
VH: QVQLVQSGAEVKKPGASVKVSCKASGYTFTSYGIHWVRQAPGQGLEWMGWISAYNGNTNYAQKLQGRVTMTTDTSTSTAYMELRSLRSDDTAVYYCARGRPSSSWGNWFDPWGQGTTVTVSS
VL: EIVLTQSPGTLSLSPGERATLSCRASQSVSSSFLAWYQQKPGQAPRLLIYGASSRATGIPDRFSGSGSGTDFTLTISRLEPEDFAVYYCQQAVSLPWTFGGGTKVEIK
notes: huIgG1; also called TI-67; ADI-19143

target: T1, mouse TREM2 on BWZ cells; experiment: FACS, BWZ cells

Binding result, no binding:
B1
B2
B3
B4
B5
B6
B7
B8
B9
B10
B11
B12
B13
B14
B15
B16
B17

target: T2, human TREM2 on BWZ cells; experiment: FACS, BWZ cells

Binding result, no binding:
B1
B2
B3
B4
B5
B6
B7
B8
B9
B10
B11
B12
B13
B14
B15
B16
B17
